# Measurements: article PMC5468478 (FEBS letters, 2017)
# B1: Mod5 (enzyme, S. cerevisiae, UniProt P07884 1-428, looked up)
# chain: MLKGPLKGCLNMSKKVIVIAGTTGVGKSQLSIQLAQKFNGEVINSDSMQVYKDIPIITNKHPLQEREGIPHHVMNHVDWSEEYYSHRFETECMNAIEDIHRRGKIPIVVGGTHYYLQTLFNKRVDTKSSERKLTRKQLDILESTDPDVIYNTLVKCDPDIATKYHPNDYRRVQRMLEIYYKTGKKPSETFNEQKITLKFDTLFLWLYSKPEPLFQRLDDRVDDMLERGALQEIKQLYEYYSQNKFTPEQCENGVWQVIGFKEFLPWLTGKTDDNTVKLEDCIERMKTRTRQYAKRQVKWIKKMLIPDIKGDIYLLDATDLSQWDTNASQRAIAISNDFISNRPIKQERAPKALEELLSKGETTMKKLDDWTHYTCNVCRNADGKNVVAIGEKYWKIHLGSRRHKSNLKRNTRQADFEKWKINKKETVE
# Molecular target: the molecule itself
# Assay: negative-stain electron microscopy
protein,measurement,value
B1,binding result,binds
